Values quoted from earlier work in PMC3491057, “Proliferating Cell Nuclear Antigen (PCNA) Interactions in Solution Studied by NMR” (PLoS ONE, 2012).
pKd: −log10 of the molar value.

Target: T1, human PCNA (Homo sapiens, UniProt P12004)
T1 construct: His6 tag with PreScission protease cleavage site (N, cleaved yes); made in house; host or cells: E. coli
Conditions: PIP-box fragments
Description: The CDK inhibitor p21 mediates the cellular response to DNA damage by arresting the cell cycle at the G1 phase, inhibiting the progression into the S phase and thus DNA replication. It is an intrinsically disordered protein with an N-terminal sequence similar to other CDK-inhibitory proteins (including p27^Kip1, p57^Kip2, and p27^XIC1) and a C-terminal region containing a PIP-box. […] The smallest p21 fragment still competing with p21^20 ... || We have characterized the thermodynamics of the p21^20 and p21^12 peptides binding to PCNA by Isothermal Titration Calorimetry (ITC) in the same buffer (PBS pH 7.0) and at the same temperature (35°C) as the NMR experiments described below (Figure 3 and Figure S2). To allow comparison with data in the literature for the p21^20 [34], ITC experiments were also carried out at 30°C.

T1 sequence (P12004 whole entry): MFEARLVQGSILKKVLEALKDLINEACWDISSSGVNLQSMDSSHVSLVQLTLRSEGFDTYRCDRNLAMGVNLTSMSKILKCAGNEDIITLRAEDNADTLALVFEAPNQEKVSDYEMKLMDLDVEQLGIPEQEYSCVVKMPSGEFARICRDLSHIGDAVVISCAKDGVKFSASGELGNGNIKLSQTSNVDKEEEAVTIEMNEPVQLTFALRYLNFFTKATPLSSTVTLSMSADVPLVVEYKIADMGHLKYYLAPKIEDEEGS

pKd | Substance
5.82 | p66^22: PIP-box fragment of p66, subunit 3 of human replicative DNA polymerase-δ (POLD3) (KANRQVSITGFFQRK)
4.22 | Fen-1^22: PIP-box fragment of Flap endonuclease 1 (SRQGSTQGRLDDFFKVTGSL)
